In the Human Domainome abundance scans (Beltran et al. 2025):
± gives the uncertainty stated by the source.

B1: Peroxisome proliferator-activated receptor delta, residues 71 to 145; numbered along this chain, Q03181 (parent)
chain: NMECRVCGDKASGFHYGVHACEGCKGFFRRTIRMKLEYEKCERSCKIQKKNRNKCQYCRFQKCLALGMSHNAIRF

Variants of: B1
Test: abundance fitness (aPCA) (normalised: wild type 0, dead -1); higher = more abundant; growth selection in yeast, the domain comes from the species named
Details: Homo sapiens

Row | Variant | abundance fitness
1 | K25T | 0.094 ± 0.041
2 | G8V | -0.899 ± 0.093
3 | C45R | -0.768 ± 0.061
4 | E3A | -0.204 ± 0.047
5 | Y57C | -0.305 ± 0.13
6 | A65E | -0.003 ± 0.042
7 | T31M | -0.521 ± 0.13
8 | R29F | 0.142 ± 0.095
9 | K35P | -0.509 ± 0.076
10 | K35C | -0.015 ± 0.053
11 | M2P | -0.58 ± 0.11
12 | C55M | -0.827 ± 0.17
13 | R30N | 0.021 ± 0.1
14 | G67E | -0.525 ± 0.091
15 | R74A | 0.079 ± 0.05
16 | H70Q | 0.108 ± 0.095
17 | L36G | -0.224 ± 0.038
18 | S69A | -0.007 ± 0.045
19 | Y16S | -0.132 ± 0.041
20 | K35D | -0.028 ± 0.07
21 | G23T | -0.203 ± 0.055
22 | E39P | 0.072 ± 0.04
23 | C24V | -1.06 ± 0.17
24 | G8H | -0.064 ± 0.087

Row | Variant | abundance fitness
25 | K25F | -0.108 ± 0.081
26 | C21D | -0.875 ± 0.37
27 | N53H | -0.152 ± 0.099
28 | H70T | 0.157 ± 0.11
29 | F60W | -0.003 ± 0.047
30 | C63K | -0.791 ± 0.14
31 | C58P | -1.04 ± 0.18
32 | C45Y | -0.374 ± 0.11
33 | C7M | -0.984 ± 0.18
34 | N53T | -0.112 ± 0.051
35 | H70R | 0.063 ± 0.052
36 | K62V | -0.569 ± 0.078
37 | L66W | -0.629 ± 0.12
38 | Q56C | 0.005 ± 0.067
39 | F28V | -0.538 ± 0.067
40 | G13F | -0.838 ± 0.17
41 | N51H | -0.071 ± 0.089
42 | Y57H | -0.177 ± 0.12
43 | F14E | 0.066 ± 0.042
44 | C24K | -0.6 ± 0.14
45 | R59F | -0.042 ± 0.079
46 | V6L | -0.614 ± 0.067
47 | G67W | -0.666 ± 0.1
48 | H70N | 0.013 ± 0.087

Row | Variant | abundance fitness
49 | G23K | -0.034 ± 0.062
50 | S69Y | -0.213 ± 0.095
51 | K25D | -0.048 ± 0.056
52 | G67P | -0.562 ± 0.13
53 | H70A | 0.02 ± 0.084
54 | A11D | -0.237 ± 0.077
55 | M34I | -0.817 ± 0.22
56 | G67D | -0.441 ± 0.11
57 | N71K | -0.127 ± 0.051
58 | K10C | -0.336 ± 0.074
59 | I47G | -0.269 ± 0.025
60 | C7D | -0.952 ± 0.34
61 | K40F | 0.02 ± 0.073
62 | A11R | -0.485 ± 0.049
63 | N71H | -0.173 ± 0.074
64 | L36P | -0.374 ± 0.067
65 | F27I | -0.994 ± 0.23
66 | K10G | -0.191 ± 0.035
67 | T31A | -0.288 ± 0.051
68 | G23Y | 0.021 ± 0.072
69 | C4I | -1.14 ± 0.4
70 | V18S | -0.505 ± 0.066
71 | V18A | -0.104 ± 0.044
72 | C41A | -1 ± 0.27

Row | Variant | abundance fitness
73 | K62G | -0.661 ± 0.074
74 | G17P | -0.527 ± 0.067
75 | R5N | 0.089 ± 0.064
76 | C24M | -0.648 ± 0.14
77 | R30H | -0.067 ± 0.065
78 | L64E | -0.397 ± 0.073
79 | E37W | -0.311 ± 0.056
80 | K40M | -0.09 ± 0.053
81 | E39Q | -0.082 ± 0.052
82 | I73F | -0.094 ± 0.069
83 | C4W | -0.747 ± 0.13
84 | K50A | 0.06 ± 0.036
85 | N51G | -0.129 ± 0.033
86 | K46E | 0.124 ± 0.04
87 | Y16T | -0.32 ± 0.059
88 | M34S | -0.097 ± 0.043
89 | A20G | -0.847 ± 0.11
90 | K62M | -0.328 ± 0.076
91 | E3L | -0.106 ± 0.041
92 | Y38Q | -1.02 ± 0.26
93 | G17E | -0.27 ± 0.061
94 | G17L | -0.692 ± 0.074
95 | C24S | -0.809 ± 0.098
96 | N51I | -0.016 ± 0.1

Row | Variant | abundance fitness
97 | R33F | 0.208 ± 0.1
98 | C63W | -0.88 ± 0.13
99 | N53R | -0.185 ± 0.037
100 | E42Q | -0.104 ± 0.049
101 | L64C | -0.16 ± 0.073
102 | Q56D | 0.189 ± 0.052
103 | S44I | -0.212 ± 0.091
104 | K40P | -0.117 ± 0.056
105 | F60I | -0.399 ± 0.13
106 | Q61R | -0.296 ± 0.038
107 | S12G | -0.274 ± 0.046
108 | M68R | -0.698 ± 0.065
109 | H19N | 0.063 ± 0.065
110 | Q61Y | -0.227 ± 0.12
111 | G26M | -0.09 ± 0.061
112 | R33V | 0.072 ± 0.043
113 | E42V | -0.074 ± 0.035
114 | C45P | -0.876 ± 0.18
115 | R59I | -0.837 ± 0.19
116 | R33H | -0.091 ± 0.098
117 | S44Q | 0.069 ± 0.049
118 | Y16D | 0.126 ± 0.056
119 | K54S | -0.079 ± 0.043
120 | A65V | -0.075 ± 0.043

Row | Variant | abundance fitness
121 | G8T | -0.447 ± 0.068
122 | R5K | 0.139 ± 0.05
123 | R52L | -0.087 ± 0.042
124 | R33N | 0.082 ± 0.1
125 | G8C | -0.582 ± 0.095
126 | Y57K | -0.507 ± 0.1
127 | E37H | -0.067 ± 0.083
128 | A65F | -0.19 ± 0.073
129 | G17R | -0.777 ± 0.076
130 | S12L | -0.395 ± 0.059
131 | L66Y | -0.345 ± 0.12
132 | G23C | 0.071 ± 0.053
133 | C58A | -0.688 ± 0.078
134 | S44P | -0.134 ± 0.058
135 | N71C | -0.246 ± 0.089
136 | G17H | -0.682 ± 0.17
137 | N51A | -0.154 ± 0.043
138 | R52Y | 0.012 ± 0.14
139 | Y38W | -0.397 ± 0.061
140 | C55T | -0.393 ± 0.11
141 | M2S | -0.305 ± 0.056
142 | L66I | 0.106 ± 0.059
143 | Y38E | -0.803 ± 0.11
144 | G26T | 0.039 ± 0.047

Row | Variant | abundance fitness
145 | G23E | 0.17 ± 0.04
146 | F27C | -0.719 ± 0.16
147 | F14L | 0.085 ± 0.034
148 | L66E | 0.067 ± 0.046
149 | A65N | -0.026 ± 0.064
150 | M34L | 0.006 ± 0.036
151 | S69L | -0.053 ± 0.047
152 | Y57N | -0.946 ± 0.27
153 | A72Y | -0.156 ± 0.09
154 | D9V | -0.331 ± 0.048
155 | K46W | -0.153 ± 0.043
156 | F28E | -0.667 ± 0.12
157 | C4R | -0.558 ± 0.07
158 | M34E | 0.118 ± 0.051
159 | K46M | 0.066 ± 0.047
160 | E22R | -0.293 ± 0.041
161 | R33P | -0.972 ± 0.23
162 | M68Y | -0.718 ± 0.16
163 | C45N | -0.835 ± 0.22
164 | K25A | 0.122 ± 0.036
165 | N53C | -0.274 ± 0.11
166 | G13P | -0.363 ± 0.079
167 | F28Y | -0.159 ± 0.12
